B1: HDV Ribozyme (parent)
chain: GGCCGGCAUGGUCCCAGCCUCCUCGCUGGCGCCGGCUGGGCAACAUUCCGAGGGGACCGUCCCCUCGGUAAUGGCGAAUGGGACCCA

Variants of: B1
Assay: self-cleavage, relative activity (ratio to wild type); higher = more cleavage; co-transcriptional

Which self-cleavage does the source give for C41U G55C here?
Its self-cleavage is 0.885.

With G5U C24A as the variant, how does the self-cleavage read?
The self-cleavage was 0.158.

With C18U C64G as the variant, how does the self-cleavage read?
The self-cleavage was 0.736.

For U37G G55U, which self-cleavage is on record?
The self-cleavage was 0.214.

For A71G U79A, which self-cleavage is on record?
The self-cleavage was 0.997.

For A16C G82C, which self-cleavage is on record?
The self-cleavage was 0.0755.

For G34U G50A, which self-cleavage is on record?
Its self-cleavage is 0.312.

With G10U G67C as the variant, how does the self-cleavage read?
Its self-cleavage is 0.572.

With G52A A70C as the variant, how does the self-cleavage read?
The self-cleavage was 0.791.

For G35C C44A, which self-cleavage is on record?
Its self-cleavage is 0.0573.

Which self-cleavage does the source give for U47G C64A here?
Its self-cleavage is 0.875.

For C22A G50U, which self-cleavage is on record?
Its self-cleavage is 0.293.

Which self-cleavage does the source give for C26A U27A here?
Its self-cleavage is 0.749.

Which self-cleavage does the source give for C14U A56C here?
Its self-cleavage is 1.44.

For U27G G74C, which self-cleavage is on record?
Its self-cleavage is 0.302.

For C44G G68U, which self-cleavage is on record?
Its self-cleavage is 0.399.

Which self-cleavage does the source give for C26G G76A here?
The self-cleavage was 0.914.

Which self-cleavage does the source give for G2A C15A here?
The self-cleavage was 0.0382.

For U46A A70C, which self-cleavage is on record?
Its self-cleavage is 0.831.

For G17U U23C, which self-cleavage is on record?
The self-cleavage was 0.219.

With C4A C21A as the variant, how does the self-cleavage read?
The self-cleavage was 0.

For C58A C86A, which self-cleavage is on record?
Its self-cleavage is 1.19.

With A77C G81U as the variant, how does the self-cleavage read?
Its self-cleavage is 0.116.

With U9C G80C as the variant, how does the self-cleavage read?
The self-cleavage was 0.256.

With G5C C19G as the variant, how does the self-cleavage read?
The self-cleavage was 0.

Which self-cleavage does the source give for A70U G82U here?
The self-cleavage was 0.567.

With C13A C84U as the variant, how does the self-cleavage read?
Its self-cleavage is 0.227.

With A16G G53U as the variant, how does the self-cleavage read?
The self-cleavage was 1.02.

With U20C A43G as the variant, how does the self-cleavage read?
The self-cleavage was 0.0978.

For C19A C24G, which self-cleavage is on record?
The self-cleavage was 0.158.

Which self-cleavage does the source give for G1A A70U here?
The self-cleavage was 0.

Which self-cleavage does the source give for C14A G38C here?
The self-cleavage was 0.141.

With G31U U72A as the variant, how does the self-cleavage read?
The self-cleavage was 0.141.

Which self-cleavage does the source give for G54C G68U here?
Its self-cleavage is 0.616.

Which self-cleavage does the source give for C19A C64G here?
The self-cleavage was 0.111.

With A51G A77G as the variant, how does the self-cleavage read?
The self-cleavage was 1.02.

With G80A G82A as the variant, how does the self-cleavage read?
The self-cleavage was 0.244.

Which self-cleavage does the source give for C19A G28C here?
The self-cleavage was 0.0462.

With G11A U47G as the variant, how does the self-cleavage read?
Its self-cleavage is 0.58.

With C26G A56C as the variant, how does the self-cleavage read?
Its self-cleavage is 1.25.

For G39C C44G, which self-cleavage is on record?
Its self-cleavage is 0.

For A70U C84U, which self-cleavage is on record?
Its self-cleavage is 0.627.

With G50U C75U as the variant, how does the self-cleavage read?
The self-cleavage was 0.13.

For U9A C61U, which self-cleavage is on record?
The self-cleavage was 0.986.

With A77C G82U as the variant, how does the self-cleavage read?
The self-cleavage was 0.0755.

With C7A C63A as the variant, how does the self-cleavage read?
The self-cleavage was 0.489.

With C19G C33U as the variant, how does the self-cleavage read?
The self-cleavage was 0.151.

For C41U A43U, which self-cleavage is on record?
The self-cleavage was 0.489.

With G1C A56U as the variant, how does the self-cleavage read?
Its self-cleavage is 0.17.

With C24G G52U as the variant, how does the self-cleavage read?
Its self-cleavage is 0.0852.

With C22U A77G as the variant, how does the self-cleavage read?
The self-cleavage was 0.369.

With C48A G81A as the variant, how does the self-cleavage read?
Its self-cleavage is 0.448.

With A51C G74A as the variant, how does the self-cleavage read?
The self-cleavage was 0.479.

For G5U G80C, which self-cleavage is on record?
The self-cleavage was 0.0811.

With U20A U69G as the variant, how does the self-cleavage read?
Its self-cleavage is 0.0519.

With C44U A51U as the variant, how does the self-cleavage read?
Its self-cleavage is 0.789.

For C48G A51G, which self-cleavage is on record?
Its self-cleavage is 0.997.

With U27A C48A as the variant, how does the self-cleavage read?
Its self-cleavage is 0.831.

For C57G G76U, which self-cleavage is on record?
Its self-cleavage is 0.984.

Which self-cleavage does the source give for U9A G54C here?
The self-cleavage was 0.935.

For G5C C13U, which self-cleavage is on record?
The self-cleavage was 0.133.

Which self-cleavage does the source give for C26G G80U here?
Its self-cleavage is 0.261.

For U37G G40A, which self-cleavage is on record?
The self-cleavage was 0.302.

Which self-cleavage does the source give for U60A C62U here?
Its self-cleavage is 1.08.

Which self-cleavage does the source give for U27A A56U here?
Its self-cleavage is 0.923.

With C7U A43C as the variant, how does the self-cleavage read?
Its self-cleavage is 0.26.

With U27A C57G as the variant, how does the self-cleavage read?
Its self-cleavage is 0.8.

For C15A A87C, which self-cleavage is on record?
Its self-cleavage is 0.654.

With C63U G80A as the variant, how does the self-cleavage read?
Its self-cleavage is 0.482.

With G34C A51G as the variant, how does the self-cleavage read?
The self-cleavage was 0.346.

For A16C G34C, which self-cleavage is on record?
Its self-cleavage is 0.104.

For G5C U47G, which self-cleavage is on record?
The self-cleavage was 0.0536.

Which self-cleavage does the source give for G5U C21A here?
Its self-cleavage is 0.

Which self-cleavage does the source give for G17U U60A here?
Its self-cleavage is 0.494.

With G25U G53U as the variant, how does the self-cleavage read?
Its self-cleavage is 0.145.

Which self-cleavage does the source give for G59C C84A here?
Its self-cleavage is 0.912.

With U65A A78U as the variant, how does the self-cleavage read?
The self-cleavage was 0.396.

With C49A A77C as the variant, how does the self-cleavage read?
The self-cleavage was 0.252.

With G35C G67C as the variant, how does the self-cleavage read?
The self-cleavage was 0.0519.

Which self-cleavage does the source give for C13A C44A here?
Its self-cleavage is 0.119.

For A51G U79G, which self-cleavage is on record?
The self-cleavage was 0.831.

With C26U G29A as the variant, how does the self-cleavage read?
Its self-cleavage is 0.332.

For C63U G68C, which self-cleavage is on record?
Its self-cleavage is 0.941.

Which self-cleavage does the source give for C63A U79A here?
The self-cleavage was 0.636.
